Data taken from publication doi:10.1101/2024.09.25.614892 (bioRxiv, 2024).
Read-outs that look alike come from different tables or passages of the source.

B6: FliC (flagellin) of Salmonella enterica (natural protein, UniProt P06179 1-495, looked up)
chain: MAQVINTNSLSLLTQNNLNKSQSALGTAIERLSSGLRINSAKDDAAGQAIANRFTANIKGLTQASRNANDGISIAQTTEGALNEINNNLQRVRELAVQSANSTNSQSDLDSIQAEITQRLNEIDRVSGQTQFNGVKVLAQDNTLTIQVGANDGETIDIDLKQINSQTLGLDTLNVQQKYKVSDTAATVTGYADTTIALDNSTFKASATGLGGTDQKIDGDLKFDDTTGKYYAKVTVTGGTGKDGYYEVSVDKTNGEVTLAGGATSPLTGGLPATATEDVKNVQVANADLTEAKAALTAAGVTGTASVVKMSYTDNNGKTIDGGLAVKVGDDYYSATQNKDGSISINTTKYTADDGTSKTALNKLGGADGKTEVVSIGGKTYAASKAEGHNFKAQPDLAEAAATTTENPLQKIDAALAQVDTLRSDLGAVQNRFNSAITNLGNTVNNLTSARSRIEDSDYATEVSNMSRAQILQQAGTSVLAQANQVPQNVLSLLR

Assays:
Experiment in all cases: cryo-EM structure
cryo-EM structure [1] = target: the molecule itself
cryo-EM structure [2] = target: the molecule itself; remark: listed apart in the source
cryo-EM structure [3] = target: the molecule itself; remark: listed apart in the source
[4] = target: B6
[5] = target: B6; remark: listed apart in the source

B1: FlgK (hook-filament junction protein) of Campylobacter jejuni (natural protein, UniProt Q0P8E9 1-608, looked up)
chain: MGIFGTLYTGVTGLKASEVQIATTGNNISNANATFYTRQRVVQTTNGYITTGGVQVGTGTAVESIVRLHDEYSYYKLKGASTQLEYTKYMASTLQEIAQRFPDLQNTGILQDLENYNKAWNDFASNPNENATKIALVKASQTLTESVNNTFATLDKIQKKVNDDIKNTVDEINRIGEEIATINKQIYGQEALPTEHANELRDRRDELELTLSKLVSAVASKNEINQDNRLDTTITDPGHQYNLSIEGFSIVDGINFHPLKLDYDDKNKSYSIYYETPDEKVRDLTAKISGGQLGAQLDLRGRNYSKSEGKYEDGIIQGYMDSLDTFAKTMINETNNLYASSAKSSVTSDYLSGLKGDIPLVNYDRTIQPGSFDIVIYDDKGDKKLTKTITIDVNTTMNDIMRQINANTDDNDNKNSNDDVDDHINASFSYDAKTGDGLFQINAKSGFKVAIEDKGTNFAGAFSIGGFFSGTDASDMKVKDSILNDPSTVRASSNGVDSGNDMANKIIQLQYKKVNFYNEDGTIDNLTMEEYYRKLTGKIASDGENNNVVNSSNETLYNSVYSEYQSKSGVNTNEELAALIQYQSSYGAAAKIVSTVDQMLDTLLGLKS
cryo-EM structure [1]
  stoichiometry N: 11 subunits

B2: FlgE (flagellar hook protein) of Salmonella enterica (natural protein, UniProt P0A1J1 1-403, looked up)
chain: MSFSQAVSGLNAAATNLDVIGNNIANSATYGFKSGTASFADMFAGSKVGLGVKVAGITQDFTDGTTTNTGRGLDVAISQNGFFRLVDSNGSVFYSRNGQFKLDENRNLVNMQGMQLTGYPATGTPPTIQQGANPAPITIPNTLMAAKSTTTASMQINLNSTDPVPSKTPFSVSDADSYNKKGTVTVYDSQGNAHDMNVYFVKTKDNEWAVYTHDSSDPAATAPTTASTTLKFNENGILESGGTVNITTGTINGATAATFSLSFLNSMQQNTGANNIVATNQNGYKPGDLVSYQINNDGTVVGNYSNEQEQVLGQIVLANFANNEGLASQGDNVWAATQASGVALLGTAGSGNFGKLTNGALEASNVDLSKELVNMIVAQRNYQSNAQTIKTQDQILNTLVNLR
cryo-EM structure [2]
  binding result: binds

B3: FlgK (hook-filament junction protein) of Salmonella enterica (natural protein, UniProt P0A1J5 1-553, looked up)
chain: MSSLINHAMSGLNAAQAALNTVSNNINNYNVAGYTRQTTILAQANSTLGAGGWIGNGVYVSGVQREYDAFITNQLRGAQNQSSGLTTRYEQMSKIDNLLADKSSSLSGSLQSFFTSLQTLVSNAEDPAARQALIGKAEGLVNQFKTTDQYLRDQDKQVNIAIGSSVAQINNYAKQIANLNDQISRMTGVGAGASPNDLLDQRDQLVSELNKIVGVEVSVQDGGTYNLTMANGYTLVQGSTARQLAAVPSSADPTRTTVAYVDEAAGNIEIPEKLLNTGSLGGLLTFRSQDLDQTRNTLGQLALAFADAFNAQHTKGYDADGNKGKDFFSIGSPVVYSNSNNADKTVSLTAKVVDSTKVQATDYKIVFDGTDWQVTRTADNTTFTATKDADGKLEIDGLKVTVGTGAQKNDSFLLKPVSNAIVDMNVKVTNEAEIAMASESKLDPDVDTGDSDNRNGQALLDLQNSNVVGGNKTFNDAYATLVSDVGNKTSTLKTSSTTQANVVKQLYKQQQSVSGVNLDEEYGNLQRYQQYYLANAQVLQTANALFDALLNIR
cryo-EM structure [2]
  stoichiometry N: 11 subunits

B4: FliD (flagellar filament cap protein) of Salmonella enterica (natural protein, UniProt P16328 1-467, looked up)
chain: MASISSLGVGSNLPLDQLLTDLTKNEKGRLTPITKQQSANSAKLTAYGTLKSALEKFQTANTALNKADLFKSTVASSTTEDLKVSTTAGAAAGTYKINVTQLAAAQSLATKTTFATTKEQLGDTSVTSRTIKIEQPGRKEPLEIKLDKGDTSMEAIRDAINDADSGIAASIVKVKENEFQLVLTANSGTDNTMKITVEGDTKLNDLLAYDSTTNTGNMQELVKAENAKLNVNGIDIERQSNTVTDAPQGITLTLTKKVTDATVTVTKDDTKAKEAIKSWVDAYNSLVDTFSSLTKYTAVEPGEEASDKNGALLGDSVVRTIQTGIRAQFANSGSNSAFKTMAEIGITQDGTSGKLKIDDDKLTKVLKDNTAAARELLVGDGKETGITTKIATEVKSYLADDGIIDNAQDNVNATLKSLTKQYLSVSNSIDETVARYKAQFTQLDTMMSKLNNTSSYLTQQFTAMNKS
cryo-EM structure [3]
  stoichiometry N: 5 subunits
[4]
  binding result: binds

B5: FlgL (hook-filament junction protein) of Campylobacter jejuni (natural protein, UniProt A0A5T0WDM5 1-750, looked up)
chain: MRITNKLNFTNSVNNSMGGQSALYQISQQLASGLKIQNSYEDASTYIDNTRLEYEIKTLEQVKESTSRAQEMTQNSMKALQDMVKLLEDFKVKVTQAASDSNSQTSREAIAKELERIKESIVQLANTSVNGQYLFAGSQVANKPFDSNGNYYGDKNNINVVTGAGTESPYNIPGWDLFFKADGDYKKQISTNVSFTDNRWDLNKDPDKTKYLTGDSKWQQLIGQGYVKDNSLDADKDFEYDDSKLDFPPTTLYVQGTKPDGTSFKSAVLVKPEDTLEDVMENIGALYGNTPNNKVVEVSMNDSGQIQITDLKQGNNKLDFHAVAFTPQADTKDELKNIIEAANQEGISMNEVTNRVMQAATAAPSNGDITKLNNPVTVTINNQQFTIDLKQTDFIKSKMTDTDGNAANGADYDNVYFEKNGNTVYGNVSQVIKGSNAYATDSTKLSEVMAGDSLNGTTLNLKVNSKGGNSYDVTINLQTSTVSYPDPNNPGQTISFPIMHTNPATGNSGVVTGSNDITYGQINDIIGMFAADKIPTTTIQANNGQINNADYTQIQQLMKDSQATVDVSMDYKGRISVTDKLSSGTNIEISLSDSQSGQFPAPPFTTTSTVQNGPNFSFSANNSLTIDEPNVDIIKDLDSMIDAVLKGNMRADSESENPRNTGMQGALERLDHLADHVSKLNTTMGAYHNTIEGVNTRTSFLSVNVQSIKSNVIDVDYGEAMMNLMQVQLAYQASLKASTTISQLSLLNYM
cryo-EM structure [1]
  stoichiometry N: 11 subunits

## B6
cryo-EM structure [2]
  binding result: binds

B7: FliD (flagellar filament cap protein) of Campylobacter jejuni (natural protein, UniProt Q9PHW6 1-642, looked up)
chain: MAFGSLSSLGFGSGVLTQDTIDKLKEAEQKARIDPYTKKIEENTTKQKDLTEIKTKLLSFQTAVSSLADATVFAKRKVVGSISDNPPASLTVNSGVALQSMNINVTQLAQKDVYQSKGLANDGGFVNAQLNGTADLTFFSNGKEYTVTVDKNTTYRDLADKINEASGGEIVAKIVNTGEKGTPYRLTLTSKETGEDSAISFYAGKKDSNGKYQKDINAEKIFDDLGWGLDVSASIDPDKDKKGYGIKDASLHIQTAQNAEFTLDGIKMFRSSNTVTDLGVGMTLTLNKTGEINFDVQQDFEGVTKAMQDLVDAYNDLVTNLNAATDYNSETGTKGTLQGISEVNSIRSSILADLFDSQVVDGTTEDANGNKVNTKVMLSMQDFGLSLNDAGTLSFDSSKFEQKVKEDPDSTESFFSNITKYEDINHTGEVIKTGSLSKYLNSNGGNTNGLEFKPGDFTIVFNNQTYDLSKNSDGTNFKLTGKTEEELLQNLANHINSKGIEGLKVKVESYNQNNVTGFRLNFSGDGSSDFSIKGDANILKELGLSDVNITSKPIEGKGIFSKLKATLQEMTGKDGSITKYDESLTNDIKSLNTSKDSTQAMIDTRYDTMANQWLQYESILNKLNQQLNTVTNMINAANNSNN
cryo-EM structure [1]
  stoichiometry N: 5 subunits

B8: FlgL (hook-filament junction protein) of Salmonella enterica (natural protein, UniProt P16326 1-317, looked up)
chain: MRISTQMMYEQNMSGITNSQAEWMKLGEQMSTGKRVTNPSDDPIAASQAVVLSQAQAQNSQYALARTFATQKVSLEESVLSQVTTAIQTAQEKIVYAGNGTLSDDDRASLATDLQGIRDQLMNLANSTDGNGRYIFAGYKTEAAPFDQATGGYHGGEKSVTQQVDSARTMVIGHTGAQIFNSITSNAVPEPDGSDSEKNLFVMLDTAIAALKTPVEGNNVEKEKAAAAIDKTNRGLKNSLNNVLTVRAELGTQLSELSTLDSLGSDRALGQKLQMSNLVDVDWNSVISSYVMQQAALQASYKTFTDMQGMSLFQLNR
cryo-EM structure [2]
  stoichiometry N: 11 subunits
[5]
  binding result: binds
